Reference: the DeepSol protein solubility set

Assay: soluble on expression in E. coli; label from the status in PepcDB or PDB records

**Q.** For “GPGSMAFGNASKGTDDYTPEEHLTAAVMEYKKLEAANQNSVEHMYNVLSSPFKIGSKPCEAIRGDALRCLSEIIGNFTAKSTSGTDGSTVMANSASIVSQELPPIHRCYESVLHYESCVLERTLSRHNSMVATFEARRLREADSAREAAAAGGDI”, which “soluble on expression in E. coli” value is on record?
**A.** not soluble

**Q.** With “GPGSMCSPIADNADMIVPSADTCCPNTVFERVLRCACIVMRVGDDPGYIWTPQRLGAGSFGTVTLAYRHEGDAVWRKTAVKRISLRKETRLSAVLEKVRCTGREVALCRRAGVSPHVVPMYKPWFDCREGVIALPMDAGDFSLEQYAVHCGFRFPPLALLSMCAQCARAVAHLHRRGVVHRDVKPDNFVVNVFDTVGGAGAGGDGDCGEARPPFVRILDFGLACGVEEVEQELKRCVGTPHYMAPETFSHLCDCDVPAACDVWSLGVTLFRLATGVFPVFDQDVTASWPPASASSARLGVPRLRSPWPRVVERCPAPW” as the sequence, how does the “soluble on expression in E. coli” value read?
**A.** not soluble

**Q.** Which “soluble on expression in E. coli” value does the source give for “GPGSMDTIEFLHTVGKLKETMRTGWVETGVHQPESVSDHMYRAALLCMMCPDSSLNRDRLVRMALCHDVGESIIGDISPKMGVPAAEKHKREKEAILHLRGLLPHDSPLEKELQELWEEYETQGTPEARFLRDIDLLEMVTQAHAYEKTHPELNFDSFYVSGEKIKHPWVRSIYDNLVSTRPSRKS” here?
**A.** soluble

**Q.** With “GPGSMDVARTMRATAGGKAFAVVAAEQTAGRGTGGRTWTSPKGNLYMTVGVPQLGQPPCLKEELVPVLPLICGLACRRAVLEVLHLDGALAKASVAADAAKAVATKWPNDIIYNHKKIGGTLIESDGDYLIIGIGMNIAVAPQMTDAGREATMINTIAEDFGVKSCPPRDLANAIWCHLFDICSSPEWTRELVIESFDKVMDKSLKLHKRLPGGRDPEELTAVSLNSWGHLKVRHADGTVEDLSAEYLF” as the sequence, how does the “soluble on expression in E. coli” value read?
**A.** not soluble

**Q.** Which “soluble on expression in E. coli” value does the source give for “GPGSMESQKRMMWNLKGRSAVAALDPSTRHRIMQSHAMASSFHKPLLATLEVLITPQYVGGLTGPLQKPEPFICHVTRLLQITPDPSIVLAMLHQDVHKYLRVAALFIIRLIGNEAMMREAMRVGWEDYRKIRVYGYVEDLAGTIDSKENNAPDEEEGFVRAPAYGIMCVDEITDRLFNVGESDINKNGGSGNLWLGLRLPPILL” here?
**A.** not soluble

**Q.** Which “soluble on expression in E. coli” value does the source give for “GPGSMFHRTTPEEEVRKWTRSLRSEQRKIELQITKIRREEAKVKLSMKQAAKQNDQVVMRMLAKEMIRSRKAVNRMYASKAQMNSVSMQLQNQASQMKMSGSLKKSGEIMKEMNSLVKVKEVQQSMMAMSKEMVKAGLIDEIMNDTIDEALDDDISDTELEDEVNKVVMDVVQGQMDGARVGASRIPAQQQQQQETAEEEEDELMEKLNALRNS” here?
**A.** soluble

**Q.** With “GPGSMFYKIVLQRTVNVKPADLCNTLNRSLLTFLREAVEGKPLPSPDSIASIALDYVTASKSSAVVIAVLDILNAETLQGKVLDDGSVSFRLTYEAMVLKLHRGEVLDLLVSDVDETGFWASVYGVNKLFVNRNQMGEDMKTGKSEWSFEAETAAWVSNDDRRSIKKDTMVRLRVIAETPQSERGMAVGTIGAPFLGPRVGSY” as the sequence, how does the “soluble on expression in E. coli” value read?
**A.** not soluble

**Q.** Which “soluble on expression in E. coli” value does the source give for “GPGSMGAVKFQLYKTLGVPMKSSIKDITRAYRHLALKYHPDRNPEGVEKFKSISNAYAVLSDPERRAAYDLTGFLSDSADSSHAMSDEAARQQRSAELADQVRTFFATYAGSAEERLDVVRGYEKCRGDFKKMVREYLLFDNGVEAEVQRLHRLVSTLIELGNLSPTPAWKSTSTPEALLRLEKAMHRERQEAENVLKDMAGSGTGAAGAADGDLSSLQVMIRQRQQSSYESMLNHLESKYVTKKSNARESSKRTREAAPTARKDECASKKHRKASHHR” here?
**A.** soluble

**Q.** With “GPGSMGVALTHGLQRQRQQRTAAGHRSANRRGKRGLPPSLLGRLCMFVFVWMHLAEERERRECRLQGKKVFLEESSAGSSRSCMRRRHVCGVRACAGRRGCFASSVISLRCWTSSQSAVVAALTRLRVSSFSAPHLFRLARSAAPTREAASTKYFIDSLAAHSSRLIGVRAPLAHTHVHLGDCIDSTTSACVCGEEIHHHRAQPGVTVSLCTPFSLSHTPSTAWAPLLPADKHHMQASPVLAGAAVRRTATASVGSEPRTNLPFLINVVKKAQKSANTVVASTPALSSMSSTKEPPIQAAAFKPYPLLSPGEVKQAAGSSLLYKDDVCVLVNDAFPKSMVHCLVMPLDLRLQSLNALTKKDAPLLRHMLHVGDEYVRYLKTAVPHTYTARRFIAGFHALPSLPMLHMHVLSTDLDSPCLKNKKHYNSFATFFFLTGDRVLDDLERHGRVTLNQDVTRLRQMEEQDMKCLWCGTALPSVPAMKSHIQCCPQNKAVEKSS” as the sequence, how does the “soluble on expression in E. coli” value read?
**A.** not soluble
